Laboratory results: article doi:10.1101/2021.02.23.432414
Read-outs that look alike come from different tables or passages of the source.

Experiments:
[1] = biological target: fluorescently labelled double-cysteine variant of outer membrane protein X (OmpX_(1,149)), unfolded (UniProt P0A917); assay: single-molecule FRET
[2] = biological target: fluorescently labelled double-cysteine variant of outer membrane protein X (OmpX_(1,149)), unfolded (UniProt P0A917); assay: single-molecule FRET; remark: listed apart in the source

Sequence of UniProt P0A917 (P0A917 24-171, change not shown): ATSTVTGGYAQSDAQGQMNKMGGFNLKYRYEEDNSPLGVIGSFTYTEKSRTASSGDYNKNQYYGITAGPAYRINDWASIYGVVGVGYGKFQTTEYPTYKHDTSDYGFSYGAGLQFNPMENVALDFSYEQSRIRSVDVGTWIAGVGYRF

survival factor A (SurA) (from UniProt P0ABZ6 21-428) (natural protein)
c1/2 [1]: 407 nM | dH [1]: -31.5 kcal/mol | percent of uOmpX bound at ~6 uM SurA [1]: 87%

B1: seventeen-kilodalton protein (Skp), trimer (natural protein)
chain: ADKIAIVNMGSLFQQVAQKTGVSNTLENEFKGRASELQRMETDLQAKMKKLQSMKAGSDRTKLEKDVMAQRQTFAQKAQAFEQDRARRSNEERGKLVTRIQTAVKSVANSQDIDLVVDANAVAYNSSDVKDITADVLKQVK
c1/2 [2]: 359 nM | dH [2]: -71.2 kcal/mol | percent of uOmpX bound at 2.5 uM Skp3 [2]: 80%
